According to article PMC6666309 (Biochemistry, 2019):

B1: pro-cathepsin D (enzyme)
chain: not shown
modifications: fluorescently labelled in the MST assay (dye and site not stated)
B2: full-length progranulin (natural protein, human, UniProt P28799 18-593, looked up)
chain: TRCPDGQFCPVACCLDPGGASYSCCRPLLDKWPTTLSRHLGGPCQVDAHCSAGHSCIFTVSGTSSCCPFPEAVACGDGHHCCPRGFHCSADGRSCFQRSGNNSVGAIQCPDSQFECPDFSTCCVMVDGSWGCCPMPQASCCEDRVHCCPHGAFCDLVHTRCITPTGTHPLAKKLPAQRTNRAVALSSSVMCPDARSRCPDGSTCCELPSGKYGCCPMPNATCCSDHLHCCPQDTVCDLIQSKCLSKENATTDLLTKLPAHTVGDVKCDMEVSCPDGYTCCRLQSGAWGCCPFTQAVCCEDHIHCCPAGFTCDTQKGTCEQGPHQVPWMEKAPAHLSLPDPQALKRDVPCDNVSSCPSSDTCCQLTSGEWGCCPIPEAVCCSDHQHCCPQGYTCVAEGQCQRGSEIVAGLEKMPARRASLSHPRDIGCDQHTSCPVGQTCCPSLGGSWACCQLPHAVCCEDRQHCCPAGYTCNVKARSCEKEVVSAQPATFLARSPHVGVKDVECGEGHFCHDNQTCCRDNRQGWACCPYRQGVCCADRRHCCPAGFRCAARGTKCLRREAPRWDAPLRDPALRQLL

Tests used:
[1] = molecular target: B2; assay: MST
[2] = molecular target: B1; assay: cell-based or functional assay

| Kd [1] | Binder | DSF - ΔTm of proCTSD (1 μM proCTSD with 2 μM PGRN, pH 7.4) [2] |
| --- | --- | --- |
| 950 nM | B1 |  |
|  | B2 | -0.41 °C |
